According to patent publication US8969530B2, “Anti-clathrin heavy chain monoclonal antibody for inhibition of tumor angiogenesis and growth and application thereof” (Academia Sinica, priority 2011, dated 2015):
Blank lines part the entries; values can stand above or below the molecule they belong to. Where a SMILES comes first, the peptide text is derived from it. The star is where a group is joined. Cbz = O=C(OCc1ccccc1)*

Legend:
pancreatic cancer = conditions: cited from earlier work
[1] = test system: HIF-1α protein in MIA PaCa-2 cells; experiment: HIF-1α protein level and stability in CHC knockdown cells (Western blot); format: cell-based, human; conditions: MG132 10 μM, DFX 100 μM
Protocol: (§1) Cells were extracted with RIPA buffer and the supernatants were immunoprecipitated using either anti-CHC antibody, Pa65-2, mAb X-22 (Affinity), or anti-HIF-1α antibody (BD), then analyzed by immunoblotting. The signals were developed using enhanced chemiluminescence reagents (ECL) (Thermo).
(§2) For hypoxia experiments, MIA PaCa-2 cells were grown in a Ruskinn Hypoxic Chamber (APM-50D, 18 Astec, Japan) and treated with either 1% O2, 5% CO2 for 18 h, or given DFX, deferoxamine (100 μM, Sigma) treatment for 5 or 16 h. For proteasome inhibitor treatment, MG132 (10 μM, Sigma) was added to culture medium then incubated 5 to 17 h.

HUVECs [2] = experiment: Apoptosis in HUVEC by TUNEL staining; format: cell-based, human
Protocol: (§3) CD31 staining and TUNEL assays were carried out as described previously. The slides were then visualized under a fluorescent microscope and analyzed with MetaMorph software.

[3] = test system: HIF-1α expression and VEGF secretion in MIA PaCa-2 cells; experiment: Western blot of HIF-1α expression and VEGF secretion under DFX hypoxia; format: cell-based, human; conditions: DFX 100 μM, 50 μg/ml, 48 h
Protocol: as §1, §2

[4] = test system: pancreatic adenocarcinoma cell lines MIA PaCa-2 and AsPC-1; experiment: ELISA and Western blot binding screen on pancreatic adenocarcinoma cell lines; format: cell-based, human; conditions: MIA PaCa-2, AsPC-1 versus normal HUVEC, NNM, CCD-1112Sk
Protocol: as §1
(§4) Cells were cultured in 96-well polystyrene plates for 3 days and then fixed with 2% paraformaldehyde. After blocking and washing twice with PBS/0.1 % Tween 20 (PBST0.1), the hybridoma supernatants were added and the plates were incubated for 2 h at room temperature. This was followed by washing and incubating with horseradish peroxidase (HRP)-conjugated goat anti-mouse IgG for 1 h. The colorimetric reaction was developed with the substrate ortho-phenylene-diamine (OPD) according to the manufacturer's instructions (Sigma), and was stopped by adding 3 N HCl. Absorbance at 490 nm was measured using a microplate reader. Each control and test group was tested in triplicate. Each experiment was repeated at least three times. […] The stained cells were washed twice and fluorescence signals were measured using a FACScan (BD).
(§5) 3×10^3 cells were cultured into each well of 96-well polystyrene plates for 3 days and fixed with 2% paraformaldehyde. […] Absorbance at 490 nm was measured using a microplate reader. […]

[5] = test system: human pancreatic cancer tissue array; experiment: Immunohistochemistry of Pa65-2 on human pancreatic cancer tissue arrays; conditions: for Labeling Score: score 0-4
Protocol: (§6) The human pancreatic cancer gene expression arrays (Origene) were analyzed by an ABI9600 thermocycler (Applied Biosystems). Tissue arrays were purchased from Pantomics Inc. Tissue sections were stained with antibodies specific for CHC (Pa65-2), VEGF (GeneTex), HIF-1α (Millipore), NM-IgG, and UEA-1-FITC (Vector). Quantification of DAB intensity was by HistoQuest software (TissueGnostics). The protocol was approved by the institutional Review Board of Human Subjects Research Ethics Committee of Academia Sinica (Taipei).
We modified the “Quick Score” methods by reducing the original scales (Siegel et al. (2012) “Cancer statistics 2012” CA Cancer J Clin, 62, 10-29). Two indices were used in evaluating the staining results of tumors. Labeling Index (LI) indicates the number of tumor cells that were immunostained (or “positive cells”) as a proportion of the overall number of cells. A score on a scale of 0-2 was assigned; 0-10%=0, 11-49%=1, 50-100% =2. The second index is the Intensity Index (II), which measures the average intensity of the immunostaining. A score on a scale of 0-2 was assigned; no staining=0, weak staining=1, and strong staining=2. The scores from these two indices were added to give the tumor Labeling Score (LS), which ranges from 0-4.

MIA PaCa-2 cells [6] = experiment: Binding of Pa65-2 to cells by ELISA, flow cytometry and immunofluorescence; format: cell-based, human; conditions: flow cytometry, immunofluorescent analyses
Protocol: Cells were cultured in 96-well polystyrene plates for 3 days and then fixed with 2% paraformaldehyde. After blocking and washing twice with PBS/0.1 % Tween 20 (PBST0.1), the hybridoma supernatants were added and the plates were incubated for 2 h at room temperature. This was followed by washing and incubating with horseradish peroxidase (HRP)-conjugated goat anti-mouse IgG for 1 h. The colorimetric reaction was developed with the substrate ortho-phenylene-diamine (OPD) according to the manufacturer's instructions (Sigma), and was stopped by adding 3 N HCl. Absorbance at 490 nm was measured using a microplate reader. Each control and test group was tested in triplicate. Each experiment was repeated at least three times. To analyse binding, cells (1×10^5 cells per tube) were prepared, washed, centrifuged, and resuspended in 100 μl of PBS/1% FCS containing Pa65-2 or NM-IgG. Cells were incubated at 4° C. for 1 h, washed twice with PBS/1% FCS and stained with […] isothiocyanate (FITC)-labeled goat anti-mouse IgG at 4° C. for 20 min. The stained cells were washed twice and fluorescence signals were measured using a FACScan (BD). […]
as §5

MIA PaCa-2 cells [7] = experiment: Apoptosis assay (FLICA caspase activity); format: cell-based, human; conditions: 24 h
Protocol: Apoptosis of cultured cells was verified through the detection of caspase activity using sulforhodamine FLICA apoptosis detection kit (Immunochemistry Technologies). Cells in 96-well culture plates were treated with Pa65-2 or NM-IgG for 24 h. After incubating with FLICA, cells was read at ex/era of 550/595 nm with fluorescence plate reader (Molecular Devices).

[8] = target: T1, human clathrin heavy chain (CHC) (Homo sapiens, UniProt Q00610); experiment: Target identification: immunoaffinity, LC-MS/MS, immunoprecipitation and Western blot; format: binding; conditions: immunoprecipitation and Western blot in parallel with mAb X-22; CHC knockdown
T1 construct: endogenous in cells; host or cells: MIA PaCa-2 (human pancreatic adenocarcinoma cells)
Protocol: MIA PaCa-2 cell lysates were purified by protein G sepharose (GE), coupled with Pa65-2 and eluted with elution buffer. The eluates were separated by SDS-PAGE. The band of interest was cut from the gel, reduced with dithioerythreitol (DTE) alkylated with iodoacetamide (IAA) and digested with trypsin for 16 h at 37° C. The digested peptides were analyzed by LC-MS/MS sequencing in the Core Facility for Proteomics and Structural Biology Research at Academia Sinica (Taipei).
as §1

[9] = test system: blood vessels of human pancreatic cancer tissues; experiment: Immunofluorescent co-staining of Pa65-2 and UEA-1 in pancreatic cancer tissue
Protocol: as §6

[10] = test system: MIA PaCa-2-derived pancreatic cancer xenografts; experiment: Antitumor efficacy of Pa65-2 in pancreatic cancer xenografts; format: in vivo, NOD/SCID mice
Protocol: All animal experiments were performed as per the guidelines of the National Laboratory Animal Center. The protocol was approved by the Committee on the Ethics of Animal Experiments of Academia Sinica (Taipei). A xenograft model was generated by injecting NOD/SCID mice with MIA PaCa-2 cells transduced with either CHC shRNA or control vector. The two kinds of transduced cells were injected into different lateral sides of the hind limbs of eight animals at the same time. For analysis of antitumor efficacy of Pa65-2, NOD/SCID mice bearing MIA PaCa-2-derived pancreatic cancer xenografts (˜50 mm^3) were intravenously injected in the tail vein with Pa65-2, or gemcitabine, or NM-IgG, or equivalent
volumes of PBS. Tumors were measured by calipers every three days, and mice were observed routinely for weight loss as a symptom of drug toxicity. The tumor volumes were calculated as length×(width)^2×0.52. Animals were treated following the guidelines established by Academia Sinica (Taipei).
as §3

HUVECs [11] = experiment: Inhibition of HUVEC VEGF internalization; format: cell-based, human; conditions: 50 μg/ml, VEGF-A 40 ng/ml
Protocol: HUVEC were washed with serum-free medium, incubated in 1% BSA in serum-free medium at 37° C., and pretreated with Pa65-2 or NM-IgG (50 μg/ml) at 37° C. They were then incubated with or without VEGF-A (40 ng/ml) at 37° C. or 4° C. After cells were washed, fixed and made permeable. The permeable cells were incubated with anti VEGF-A antibody (A-20, Santa Cruz). Finally, cells were stained using Rhodamine-conjugated secondary antibodies.

[12] = test system: MDAMB-231 (breast cancer), CL1-5 (lung cancer), SKOV3 (ovary cancer) and SAS (oral cancer); experiment: ELISA and Western blot binding on other cancer cell lines; format: cell-based, human; conditions: MDAMB-231, CL1-5, SKOV3, SAS
Protocol: as §1, §4, §5

MIA PaCa-2 cells [13] = experiment: MTT cell proliferation assay; format: cell-based, human; conditions: 50 μg/ml for 3 days
Protocol: Cells were cultured in 96-wells plates. To reduce cancer growth, the cells were culture in Dulbecco's modified Eagle's medium (DMEM) containing 50 μg/ml Pa65-2 or NM-IgG. After incubating for 0, 1, 2, 3 days, the cells were subjected to an MTT assay. The absorbance was determined with a microplate reader at 540 nm. Each assay was repeated for three times.

MIA PaCa-2 cells [14] = experiment: Matrigel invasion assay; format: cell-based, human
Protocol: RT-CES (ACEA), a microelectronic cell sensor system, was used to count tire number of living cells. Cells (5×10^3) were seeded into each sensor-containing well in microliter plates. The electronic sensors provided a continuous (every 6 h), quantitative measurement of the cell index in each well. Cell growth was measured for 72 h, and cell indices for each well were recorded at all time points. Cell invasion was assayed in 24-well Biocoat Matrigel invasion chambers (8 μm; Millipore) according to the manufacturer's directions. Cells were counted under a microscope in five predetermined fields. Assays were performed in triplicate.

MIA PaCa-2 cells [15] = experiment: EGF and transferrin uptake (internalization) assay; format: cell-based, human; conditions: pretreated 50 μg/ml at 37° C.
Protocol: EGF and Tf uptake assays were carried out using a fluorescence-based approach, as previously described (26). Cells were washed with serum-free medium, incubated in 1% BSA in serum-free medium at 37° C., and pretreated with Pa65-2 or NM-IgG (50 μg/ml) at 37° C. They were then incubated with or without Alex 555-EGF (1 μg/ml, INVITROGEN™) or Alex 555-transferrin (50 μg/ml) at 37° C. or 4° C. The cells were imaged using a Leica TCS SP confocal microscope (Leica).

T1 sequence (Q00610 whole entry): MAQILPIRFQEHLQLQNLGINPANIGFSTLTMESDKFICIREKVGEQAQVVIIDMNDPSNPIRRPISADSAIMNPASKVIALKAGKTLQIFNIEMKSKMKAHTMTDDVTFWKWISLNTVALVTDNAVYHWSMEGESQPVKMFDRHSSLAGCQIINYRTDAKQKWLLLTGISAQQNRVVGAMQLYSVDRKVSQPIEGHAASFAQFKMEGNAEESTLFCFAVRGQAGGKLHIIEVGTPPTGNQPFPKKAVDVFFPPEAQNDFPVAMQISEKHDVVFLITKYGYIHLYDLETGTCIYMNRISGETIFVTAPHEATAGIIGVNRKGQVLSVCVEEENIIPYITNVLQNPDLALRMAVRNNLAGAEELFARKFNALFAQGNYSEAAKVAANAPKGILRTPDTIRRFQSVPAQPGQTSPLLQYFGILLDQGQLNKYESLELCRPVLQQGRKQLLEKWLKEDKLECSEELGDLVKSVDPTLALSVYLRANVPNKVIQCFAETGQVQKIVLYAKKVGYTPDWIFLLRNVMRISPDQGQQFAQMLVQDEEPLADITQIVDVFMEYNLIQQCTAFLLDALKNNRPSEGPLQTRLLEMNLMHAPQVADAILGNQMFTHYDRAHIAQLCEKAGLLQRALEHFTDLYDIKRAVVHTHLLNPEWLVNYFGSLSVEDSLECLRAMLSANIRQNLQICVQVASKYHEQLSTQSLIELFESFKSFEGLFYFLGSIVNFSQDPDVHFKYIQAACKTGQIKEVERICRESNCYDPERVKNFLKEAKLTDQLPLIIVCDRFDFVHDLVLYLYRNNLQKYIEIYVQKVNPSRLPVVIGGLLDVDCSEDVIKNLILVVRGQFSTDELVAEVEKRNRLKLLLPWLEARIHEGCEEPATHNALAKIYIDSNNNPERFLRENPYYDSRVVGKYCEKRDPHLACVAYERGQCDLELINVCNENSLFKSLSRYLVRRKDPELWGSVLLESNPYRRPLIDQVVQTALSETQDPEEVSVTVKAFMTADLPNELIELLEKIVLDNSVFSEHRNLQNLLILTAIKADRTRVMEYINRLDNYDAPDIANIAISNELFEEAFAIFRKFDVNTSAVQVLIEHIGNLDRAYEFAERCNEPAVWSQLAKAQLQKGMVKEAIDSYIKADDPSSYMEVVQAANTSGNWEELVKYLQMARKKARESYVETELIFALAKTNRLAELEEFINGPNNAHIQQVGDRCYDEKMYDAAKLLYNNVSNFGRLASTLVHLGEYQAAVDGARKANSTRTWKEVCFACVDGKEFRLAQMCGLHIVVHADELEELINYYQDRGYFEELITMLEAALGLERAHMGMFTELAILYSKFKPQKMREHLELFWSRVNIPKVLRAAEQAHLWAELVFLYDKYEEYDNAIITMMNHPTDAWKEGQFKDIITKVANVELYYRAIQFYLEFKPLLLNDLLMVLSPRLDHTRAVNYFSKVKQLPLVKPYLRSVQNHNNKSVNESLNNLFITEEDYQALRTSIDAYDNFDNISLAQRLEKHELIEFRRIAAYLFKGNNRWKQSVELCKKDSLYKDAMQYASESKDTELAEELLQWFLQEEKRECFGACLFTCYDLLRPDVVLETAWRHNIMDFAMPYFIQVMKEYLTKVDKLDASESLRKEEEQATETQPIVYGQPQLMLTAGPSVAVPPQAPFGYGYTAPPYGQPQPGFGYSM

Molecule: Nc1ccn([C@@H]2O[C@H](CO)[C@@H](O)C2(F)F)c(=O)n1 [gemcitabine]
- effectiveness in treating pancreatic cancer (pancreatic cancer; most commonly used medicine): only moderately effective

Molecule: bevacizumab
- improvement in overall survival of pancreatic cancer patients (pancreatic cancer; clinical trial, in combination with small molecule drugs): no significant improvement

Molecule: CC(C)C[C@@H](C=O)NC(=O)[C@H](CC(C)C)NC(=O)[C@H](CC(C)C)NC(=O)OCc1ccccc1 [MG132] (Cbz-Leu-Leu-Leu-aldehyde)
- decreased protein level of HIF-1α in CHC knockdown cells [1]: rescued

- specificity for CHC [8]: specifically recognized CHC
B1: Pa65-2: monoclonal antibody that recognizes human clathrin heavy chain (CHC); VH SEQ ID NO: 2, VL SEQ ID NO: 3 (antibody, listed as Homo sapiens, V domains shown)
VH: EVKLVESGGGLVKPGGSLNISCAASGFTFSNYVMSWVRQTPEKRLEWVATISSGDNYMYYPDSVKGRFTISSDNAKNTLFLQMSSLRSEDTALYYCARHFDNYEGNSMDYWGQGTSVTVSSAKTTPPSDYPLA
VL: DIVLTQSPATLSVTPGDSVSLSCRASQSIRSNLHWYQQKSHESPRLLIKYASQSISGIPSRFSGSGSGTDFILSINSVATEDFGVYFCQQSNSWPLTFGAGTKLELKRADAAPTVS
- apoptosis in HUVECs (HUVECs [2]): induced apoptosis
- hypoxia-induced HIF-1α expression [3]: suppressed
- VEGF secretion ([3]; culture media): suppressed
- binding affinity to pancreatic cancer cell lines [4]: strong binding affinity
- staining of pancreatic cancer tissues ([5]; 46 specimens, tissue array): positively stained
- Labeling Score ([5]; Adenocarcinoma I, stage T2N0M0): 3
- Labeling Score ([5]; Adenocarcinoma I, stage T2N1M0): 2
- Labeling Score ([5]; Adenocarcinoma I, stage T3N0M0): 3
- Labeling Score ([5]; Adenocarcinoma I, stage T3N1M0): 3
- Labeling Score ([5]; Adenocarcinoma II, stage T2N0M0): 2
- Labeling Score ([5]; Adenocarcinoma II, stage T3N0M0): 3
- Labeling Score ([5]; Adenocarcinoma II, stage T3N1MX): 3
- Labeling Score ([5]; Adenocarcinoma II, stage T4N1M1): 4
- Labeling Score ([5]; Adenocarcinoma III, stage T3N0M0): 3
- Labeling Score ([5]; Adenocarcinoma III, stage T3N1MX): 3
- Labeling Score ([5]; Normal Pancreas): 0
- staining of normal pancreatic tissues ([5]; two normal pancreatic tissues, tissue array): two normal pancreatic tissues were not
- recognition of MIA PaCa-2 cells (MIA PaCa-2 cells [6]): specifically recognize MIA PaCa-2 cells
- cell apoptosis (MIA PaCa-2 cells [7]): induced cell apoptosis
- colocalization of Pa65-2 antigen with endothelial cell marker UEA-1 [9]: colocalized
- average tumor volume smaller than the control groups ([10]; 10 mg/kg i.v. every three days, day 36, n=6, P<0.05): about 2 fold
- blood vessels in tumor sections ([10]; CD31 staining, P<0.05): decreased
- inhibitory effect on tumor growth compared with gemcitabine ([10]; Pa65-2 10 mg/kg versus gemcitabine 15 mg/kg, i.v.): equivalent effects
- apoptotic cells in tumor sections ([10]; TUNEL, n=6, P<0.01): increased
- VEGF internalization (HUVECs [11]): suppressed VEGF internalization
- binding to other types of cancer cell lines [12]: can also bind
- cancer cell proliferation (MIA PaCa-2 cells [13]): inhibited
- migration (FIG. 5C) (MIA PaCa-2 cells [14]): inhibited
- EGF uptake (MIA PaCa-2 cells [15]; Alex 555-EGF 1 μg/ml): blocked
- transferrin uptake (MIA PaCa-2 cells [15]; Alex 555-transferrin 50 μg/ml): blocked
